Measurements: patent US20180172684A1

Assays:
[1] = target: P30 protein of Mycoplasma pneumoniae as present in Mycoplasma pneumoniae analytes (deactivated Mycoplasma pneumoniae Antigen (FH), Meridian; pharyngeal swabs of infected subjects) (Mycoplasma pneumoniae) (UniProt P75330); test: immunochromatography sandwich (Com. Ex. 7), label P30(b), detection P30(b); deactivated Mycoplasma pneumoniae (FH)
[2] = target: P30 protein of Mycoplasma pneumoniae as present in Mycoplasma pneumoniae analytes (deactivated Mycoplasma pneumoniae Antigen (FH), Meridian; pharyngeal swabs of infected subjects) (Mycoplasma pneumoniae) (UniProt P75330); test: immunochromatography sandwich (Com. Ex. 7), label P30(b), detection P30(b); pharyngeal swab Subject 1
[3] = target: mycoplasma pneumonia P30 (purified protein P30Ag produced by expressing amino acids 96-274 with Escherichia coli) (Mycoplasma pneumoniae) (UniProt P75330); test: ELISA, P30Ag coated at 4 ng/mL, antibody 5 ug/mL, anti-mouse IgG-peroxidase
[4] = target: P30 protein of Mycoplasma pneumoniae as present in Mycoplasma pneumoniae analytes (deactivated Mycoplasma pneumoniae Antigen (FH), Meridian; pharyngeal swabs of infected subjects) (Mycoplasma pneumoniae) (UniProt P75330); test: immunochromatography sandwich (Com. Ex. 6), label P30(a), detection P30(b); deactivated Mycoplasma pneumoniae (FH); Triton X-100/Tween 20 diluent
[5] = target: P30 protein of Mycoplasma pneumoniae as present in Mycoplasma pneumoniae analytes (deactivated Mycoplasma pneumoniae Antigen (FH), Meridian; pharyngeal swabs of infected subjects) (Mycoplasma pneumoniae) (UniProt P75330); test: immunochromatography sandwich (Com. Ex. 1), label P30(a), detection P30(b); pharyngeal swab Subject 1
[6] = target: P30 protein of Mycoplasma pneumoniae as present in Mycoplasma pneumoniae analytes (deactivated Mycoplasma pneumoniae Antigen (FH), Meridian; pharyngeal swabs of infected subjects) (Mycoplasma pneumoniae) (UniProt P75330); test: immunochromatography sandwich (Com. Ex. 1), label P30(a), detection P30(b); deactivated Mycoplasma pneumoniae (FH)
[7] = target: P30 protein of Mycoplasma pneumoniae as present in Mycoplasma pneumoniae analytes (deactivated Mycoplasma pneumoniae Antigen (FH), Meridian; pharyngeal swabs of infected subjects) (Mycoplasma pneumoniae) (UniProt P75330); test: immunochromatography sandwich (Com. Ex. 2), label P30(b), detection P30(b); deactivated Mycoplasma pneumoniae (FH)
[8] = target: P30 protein of Mycoplasma pneumoniae as present in Mycoplasma pneumoniae analytes (deactivated Mycoplasma pneumoniae Antigen (FH), Meridian; pharyngeal swabs of infected subjects) (Mycoplasma pneumoniae) (UniProt P75330); test: immunochromatography sandwich (Com. Ex. 1), label P30(a), detection P30(b); pharyngeal swab Subject 2
[9] = target: mycoplasma pneumonia P30 (purified protein P30Ag produced by expressing amino acids 96-274 with Escherichia coli) (Mycoplasma pneumoniae) (UniProt P75330); test: immunochromatography sandwich (Com. Ex. 9), label P30(b), detection P30(b); analyte P30Ag
[10] = target: mycoplasma pneumonia P30 (purified protein P30Ag produced by expressing amino acids 96-274 with Escherichia coli) (Mycoplasma pneumoniae) (UniProt P75330); test: immunochromatography sandwich, P30(b)-gold label and P30(b) detection line, P30Ag 10 pg/mL, no peptide
[11] = target: full-length protein mycoplasma pneumonia P30 (amino acids 1-274; SEQ ID NO: 1) (Mycoplasma pneumoniae) (UniProt P75330); test: ELISA, full-length P30 coated, 5 ug/mL P30(b), no peptide (0 point of the peptide 2 series)
[12] = target: mycoplasma pneumonia P30 (purified protein P30Ag produced by expressing amino acids 96-274 with Escherichia coli) (Mycoplasma pneumoniae) (UniProt P75330); test: immunochromatography sandwich (Com. Ex. 8), label P30(a), detection P30(b); analyte P30Ag
[13] = target: P30 protein of Mycoplasma pneumoniae as present in Mycoplasma pneumoniae analytes (deactivated Mycoplasma pneumoniae Antigen (FH), Meridian; pharyngeal swabs of infected subjects) (Mycoplasma pneumoniae) (UniProt P75330); test: immunochromatography sandwich (Com. Ex. 2), label P30(b), detection P30(b); pharyngeal swab Subject 1
[14] = target: P30 protein of Mycoplasma pneumoniae as present in Mycoplasma pneumoniae analytes (deactivated Mycoplasma pneumoniae Antigen (FH), Meridian; pharyngeal swabs of infected subjects) (Mycoplasma pneumoniae) (UniProt P75330); test: immunochromatography sandwich (Com. Ex. 6), label P30(a), detection P30(b); pharyngeal swab Subject 1; Triton X-100/Tween 20 diluent
[15] = target: full-length protein mycoplasma pneumonia P30 (amino acids 1-274; SEQ ID NO: 1) (Mycoplasma pneumoniae) (UniProt P75330); test: ELISA, full-length P30 coated, 5 ug/mL P30(b), no peptide (0 point of the peptide 1 series)
[16] = target: P30 protein of Mycoplasma pneumoniae as present in Mycoplasma pneumoniae analytes (deactivated Mycoplasma pneumoniae Antigen (FH), Meridian; pharyngeal swabs of infected subjects) (Mycoplasma pneumoniae) (UniProt P75330); test: immunochromatography sandwich (Com. Ex. 2), label P30(b), detection P30(b); pharyngeal swab Subject 2
[17] = target: P30 protein of Mycoplasma pneumoniae as present in Mycoplasma pneumoniae analytes (deactivated Mycoplasma pneumoniae Antigen (FH), Meridian; pharyngeal swabs of infected subjects) (Mycoplasma pneumoniae) (UniProt P75330); test: immunochromatography sandwich (Com. Ex. 6), label P30(a), detection P30(b); pharyngeal swab Subject 2; Triton X-100/Tween 20 diluent
[18] = target: P30 protein of Mycoplasma pneumoniae as present in Mycoplasma pneumoniae analytes (deactivated Mycoplasma pneumoniae Antigen (FH), Meridian; pharyngeal swabs of infected subjects) (Mycoplasma pneumoniae) (UniProt P75330); test: immunochromatography sandwich (Com. Ex. 7), label P30(b), detection P30(b); pharyngeal swab Subject 2
[19] = target: antibody P30(a) (Fucal Research product Mp-P30-3-AB); test: immunochromatography competition, 400 ng peptide 1 developed with P30Ag 10 pg/mL, P30(a) label and detection
[20] = target: antibody P30(a) (Fucal Research product Mp-P30-3-AB); test: competitive inhibition ELISA, full-length P30 coated, 5 ug/mL P30(a) + peptide 1 at x160 the antibody concentration
[21] = target: antibody P30(b) (Fucal Research product Mp-P30-9-AB); test: competitive inhibition ELISA, full-length P30 coated, 5 ug/mL P30(b) + peptide 1 at x1 the antibody concentration
[22] = target: antibody P30(b) (Fucal Research product Mp-P30-9-AB); test: competitive inhibition ELISA, full-length P30 coated, 5 ug/mL P30(b) + peptide 1 at x160 the antibody concentration
[23] = target: antibody P30(a) (Fucal Research product Mp-P30-3-AB); test: competitive inhibition ELISA, full-length P30 coated, 5 ug/mL P30(a) + peptide 1 at x640 the antibody concentration
[24] = target: antibody P30(b) (Fucal Research product Mp-P30-9-AB); test: competitive inhibition ELISA, full-length P30 coated, 5 ug/mL P30(b) + peptide 1 at x80 the antibody concentration
[25] = target: antibody P30(a) (Fucal Research product Mp-P30-3-AB); test: competitive inhibition ELISA, full-length P30 coated, 5 ug/mL P30(a) + peptide 1 at x20 the antibody concentration
[26] = target: antibody P30(b) (Fucal Research product Mp-P30-9-AB); test: competitive inhibition ELISA, full-length P30 coated, 5 ug/mL P30(b) + peptide 1 at x40 the antibody concentration
[27] = target: antibody P30(b) (Fucal Research product Mp-P30-9-AB); test: competitive inhibition ELISA, full-length P30 coated, 5 ug/mL P30(b) + peptide 1 at x10 the antibody concentration
[28] = target: antibody P30(b) (Fucal Research product Mp-P30-9-AB); test: immunochromatography competition, 400 ng peptide 1 developed with P30Ag 10 pg/mL, P30(b) label and detection
[29] = target: antibody P30(a) (Fucal Research product Mp-P30-3-AB); test: competitive inhibition ELISA, full-length P30 coated at 4 ng/mL, 5 ug/mL P30(a) + peptide 1 at 40 times the antibody amount
[30] = target: antibody P30(a) (Fucal Research product Mp-P30-3-AB); test: competitive inhibition ELISA, full-length P30 coated, 5 ug/mL P30(a) + peptide 1 at x80 the antibody concentration
[31] = target: antibody P30(a) (Fucal Research product Mp-P30-3-AB); test: competitive inhibition ELISA, full-length P30 coated, 5 ug/mL P30(a) + peptide 1 at x1 the antibody concentration
[32] = target: antibody P30(b) (Fucal Research product Mp-P30-9-AB); test: competitive inhibition ELISA, full-length P30 coated, 5 ug/mL P30(b) + peptide 1 at x20 the antibody concentration
[33] = target: antibody P30(a) (Fucal Research product Mp-P30-3-AB); test: competitive inhibition ELISA, full-length P30 coated, 5 ug/mL P30(a) + peptide 1 at x40 the antibody concentration
[34] = target: antibody P30(a) (Fucal Research product Mp-P30-3-AB); test: competitive inhibition ELISA, full-length P30 coated, 5 ug/mL P30(a) + peptide 1 at x10 the antibody concentration
[35] = target: antibody P30(b) (Fucal Research product Mp-P30-9-AB); test: competitive inhibition ELISA, full-length P30 coated, 5 ug/mL P30(b) + peptide 1 at x320 the antibody concentration
[36] = target: antibody P30(a) (Fucal Research product Mp-P30-3-AB); test: competitive inhibition ELISA, full-length P30 coated, 5 ug/mL P30(a) + peptide 1 at x320 the antibody concentration
[37] = target: antibody P30(b) (Fucal Research product Mp-P30-9-AB); test: competitive inhibition ELISA, full-length P30 coated, 5 ug/mL P30(b) + peptide 1 at x640 the antibody concentration

In the case of “antibody P30(b) (Fucal Research product Mp-P30-9-AB)”, the Color intensity (mAbs) [1] is reported as 40.5 mAbs, the Color intensity (mAbs) [2] is reported as 15.2 mAbs and the absorbance at 450 nm after subtracting the blank [3] is reported as 0.061 Abs. The Color intensity (mAbs) [4] was 159 mAbs, the Color intensity (mAbs) [5] was 16.3 mAbs and the Color intensity (mAbs) [6] was 79.4 mAbs. For the same molecule, the Color intensity (mAbs) [7] was 18.9 mAbs, the Color intensity (mAbs) [8] was 7.9 mAbs and the Color intensity (mAbs) [9] was 24.3 mAbs. The Color intensity after 15 min [10] was 58.2 mAbs, the Color intensity (Abs) [11] was 0.208 Abs and the Color intensity (mAbs) [12] was 31.8 mAbs. The Color intensity (mAbs) [13] was 8.9 mAbs, the Color intensity (mAbs) [14] was 29.8 mAbs and the Color intensity (Abs) [15] was 0.208 Abs. For the same molecule, the Color intensity (mAbs) [16] was 6.1 mAbs, the Color intensity (mAbs) [17] was 13.6 mAbs and the Color intensity (mAbs) [18] was 8.9 mAbs.

With PGMAPRPGMPPHPGMAPR [Peptide 1 (SEQ ID NO: 6: …)] the Color intensity after 15 min [19] was 100 mAbs, the Color intensity (Abs) [20] was 0.134 Abs and the Percentage reduction of color intensity (%) [20] was 67%. It also gave a Color intensity (Abs) [21] of 0.226 Abs, a Color intensity (Abs) [22] of 0.223 Abs and a Color intensity (Abs) [23] of 0.12 Abs. The Percentage reduction of color intensity (%) [23] was 71%, the Color intensity (Abs) [24] was 0.237 Abs and the Color intensity (Abs) [25] was 0.322 Abs. The Percentage reduction of color intensity (%) [25] was 22%, the Color intensity (Abs) [26] was 0.232 Abs and the Color intensity (Abs) [27] was 0.256 Abs. For the same molecule, the Color intensity after 15 min [28] was 60.9 mAbs, the percentage reduction of absorbance [29] was > 30% and the Color intensity (Abs) [30] was 0.17 Abs. For the same molecule, the Percentage reduction of color intensity (%) [30] was 59%, the Color intensity (Abs) [31] was 0.37 Abs and the Percentage reduction of color intensity (%) [31] was 10%. It also gave a Color intensity (Abs) [32] of 0.228 Abs, a Color intensity (Abs) [33] of 0.24 Abs and a Percentage reduction of color intensity (%) [33] of 42%. The Color intensity (Abs) [34] was 0.341 Abs, the Percentage reduction of color intensity (%) [34] was 17% and the Color intensity (Abs) [35] was 0.23 Abs. It also gave a Color intensity (Abs) [36] of 0.132 Abs, a Percentage reduction of color intensity (%) [36] of 68% and a Color intensity (Abs) [37] of 0.225 Abs.
